Assay in all cases: cell-based or functional assay
Experiment [1] has as its target full-length human glucagon-like peptide 2 receptor on HEK293/CRE-Luc/hGLP2R cells (human) (UniProt O95838).
Experiment [2] concerns the target full-length cynomolgus GLP1R on HEK293/CRE-Luc/mfGLP1R cells (cynomolgus) (UniProt F8V479).
For experiment [3], the target named is full-length human GLP1R on HEK293/CRE-Luc/hGLP1R cells (human) (UniProt P43220).
In experiment [4] the target is full-length human gastric inhibitory polypeptide receptor on HEK293/CRE-Luc/hGIPR cells (human) (UniProt P48546).
The target in experiment [5] is full-length human glucagon receptor on HEK293/CRE-Luc/hGCGR cells (human) (UniProt P47871).
Experiment [6] addresses full-length human glucagon-like peptide 2 receptor on HEK293/CRE-Luc/hGLP2R cells (human) (UniProt O95838). This is another data set of the same source.
Experiment [7] has as its target full-length human gastric inhibitory polypeptide receptor on HEK293/CRE-Luc/hGIPR cells (human) (UniProt P48546). The source holds these as a separate data set.
Experiment [8] deals with full-length cynomolgus GLP1R on HEK293/CRE-Luc/mfGLP1R cells (cynomolgus) (UniProt F8V479). This is another data set of the same source.
Target sequence in this assay (F8V479 entry or part of it): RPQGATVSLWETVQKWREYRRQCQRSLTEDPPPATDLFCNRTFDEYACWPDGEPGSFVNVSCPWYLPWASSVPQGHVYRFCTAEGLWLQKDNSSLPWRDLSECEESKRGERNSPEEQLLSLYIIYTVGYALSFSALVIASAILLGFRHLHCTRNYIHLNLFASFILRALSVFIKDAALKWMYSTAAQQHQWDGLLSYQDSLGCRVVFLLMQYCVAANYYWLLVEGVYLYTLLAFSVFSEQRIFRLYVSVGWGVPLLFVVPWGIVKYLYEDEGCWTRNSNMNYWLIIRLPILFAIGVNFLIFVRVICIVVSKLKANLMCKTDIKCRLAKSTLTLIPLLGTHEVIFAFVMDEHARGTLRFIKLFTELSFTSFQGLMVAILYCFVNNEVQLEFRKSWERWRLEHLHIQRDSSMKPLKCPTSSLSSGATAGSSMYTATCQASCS
Experiment [9] concerns the target full-length human GLP1R on HEK293/CRE-Luc/hGLP1R cells (human) (UniProt P43220). This is another data set of the same source.
Experiment [10] deals with full-length human glucagon receptor on HEK293/CRE-Luc/hGCGR cells (human) (UniProt P47871). This is another data set of the same source.

Read-outs that look alike come from different tables or passages of the source.

full-length human glucagon-like peptide 2 receptor on HEK293/CRE-Luc/hGLP2R cells (human), sequence (O95838 whole entry): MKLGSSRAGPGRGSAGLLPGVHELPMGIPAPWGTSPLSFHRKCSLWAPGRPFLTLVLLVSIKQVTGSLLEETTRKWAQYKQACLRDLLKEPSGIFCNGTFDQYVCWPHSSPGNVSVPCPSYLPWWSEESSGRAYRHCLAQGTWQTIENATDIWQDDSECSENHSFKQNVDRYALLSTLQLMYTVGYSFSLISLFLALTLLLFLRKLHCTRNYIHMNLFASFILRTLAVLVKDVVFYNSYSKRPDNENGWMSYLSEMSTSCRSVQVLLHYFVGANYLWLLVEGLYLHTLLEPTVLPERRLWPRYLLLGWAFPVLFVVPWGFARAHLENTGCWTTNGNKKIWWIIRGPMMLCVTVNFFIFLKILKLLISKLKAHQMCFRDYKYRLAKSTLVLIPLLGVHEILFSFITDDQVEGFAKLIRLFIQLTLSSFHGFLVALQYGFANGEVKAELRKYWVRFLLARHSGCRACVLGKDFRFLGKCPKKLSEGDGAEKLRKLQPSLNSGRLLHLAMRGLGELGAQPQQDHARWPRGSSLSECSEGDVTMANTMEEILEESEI
full-length human gastric inhibitory polypeptide receptor on HEK293/CRE-Luc/hGIPR cells (human), sequence (P48546 22-466): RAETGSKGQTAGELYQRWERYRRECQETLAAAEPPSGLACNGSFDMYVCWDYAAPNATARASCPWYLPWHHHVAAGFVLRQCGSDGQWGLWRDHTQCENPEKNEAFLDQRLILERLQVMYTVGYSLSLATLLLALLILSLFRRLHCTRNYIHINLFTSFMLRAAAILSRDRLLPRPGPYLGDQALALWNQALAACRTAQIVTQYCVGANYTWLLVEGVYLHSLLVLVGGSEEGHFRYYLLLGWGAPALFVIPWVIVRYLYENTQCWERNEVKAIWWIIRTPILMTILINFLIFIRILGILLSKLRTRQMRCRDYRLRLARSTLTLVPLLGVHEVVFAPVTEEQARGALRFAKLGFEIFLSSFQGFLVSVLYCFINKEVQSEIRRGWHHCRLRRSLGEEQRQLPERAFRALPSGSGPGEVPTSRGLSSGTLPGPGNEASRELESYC
full-length human GLP1R on HEK293/CRE-Luc/hGLP1R cells (human), sequence (P43220 24-463): as the sequence (F8V479 entry or part of it) above, with N112S, S120F, G202S, V205L, F237L, R241W, V249I counted along it
human GLP2, sequence (P01275 146-178 limits assumed): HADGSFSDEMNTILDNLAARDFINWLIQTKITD
full-length human glucagon receptor on HEK293/CRE-Luc/hGCGR cells (human), sequence (P47871 26-477): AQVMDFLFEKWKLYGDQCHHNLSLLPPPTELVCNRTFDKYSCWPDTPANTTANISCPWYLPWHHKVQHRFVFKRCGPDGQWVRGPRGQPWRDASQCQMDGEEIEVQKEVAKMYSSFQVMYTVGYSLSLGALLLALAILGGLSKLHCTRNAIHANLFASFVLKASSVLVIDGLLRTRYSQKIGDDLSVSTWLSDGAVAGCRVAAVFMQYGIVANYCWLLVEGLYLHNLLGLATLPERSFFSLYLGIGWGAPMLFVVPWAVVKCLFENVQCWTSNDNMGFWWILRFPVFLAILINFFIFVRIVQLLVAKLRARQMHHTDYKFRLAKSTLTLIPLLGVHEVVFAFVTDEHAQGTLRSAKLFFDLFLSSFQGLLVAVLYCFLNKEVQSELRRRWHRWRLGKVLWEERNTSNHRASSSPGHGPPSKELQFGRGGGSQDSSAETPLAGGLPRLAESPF
human GCG (glucagon), sequence (P01275 53-81 limits assumed): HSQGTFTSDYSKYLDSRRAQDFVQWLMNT

With “Isotype control Ab (unconjugated; Q tag none or not stated) (antibody)”, the CRE-luc EC50 in [1], in experiment [2], in [3], in experiment [4] and in experiment [5] was greater than 300 nM throughout.

In the case of “human GCG (glucagon) (from UniProt P01275 53-81) (ligand)”, the CRE-luc EC50 was greater than 200 nM in experiment [6], greater than 200 nM in experiment [7], greater than 30 nM in experiment [1] and greater than 30 nM in experiment [4].

Take “human GIP (from UniProt P09681 52-93) (ligand)”: the CRE-luc EC50 in experiment [6] is greater than 200 nM; in experiment [8], greater than 200 nM; in experiment [9], greater than 200 nM; in [10], greater than 200 nM; in [1], greater than 30 nM; in [3], greater than 30 nM. In [5], this substance registered a CRE-luc EC50 greater than 30 nM.

In the case of “human GLP1 (reference ligand) (from UniProt P01275 98-128)”, the CRE-luc EC50 in [6] was greater than 200 nM; in [7], greater than 200 nM; in experiment [10] it was greater than 200 nM; in experiment [1], greater than 30 nM; in [4] it was greater than 30 nM; in [5], greater than 30 nM.

With “human GLP2 (from UniProt P01275 146-178) (ligand)”, the CRE-luc EC50 is greater than 200 nM in experiment [8]; greater than 200 nM in experiment [9]; greater than 200 nM in [7]; greater than 200 nM in experiment [10]; greater than 30 nM in [3]; greater than 30 nM in experiment [4]. For the same substance, the CRE-luc EC50 in [5] was greater than 30 nM.

The values above are taken from US20230330254A1, “ANTI-GLP1R ANTIBODY-TETHERED DRUG CONJUGATES COMPRISING GLP1 PEPTIDOMIMETICS AND USES THEREOF” (Regeneron Pharmaceuticals, Inc., priority 2022, published 2023).
